From patent US5587468 come the findings set out here.

The target of this series is HIV-1 integrase (Human immunodeficiency virus 1 (BH10)) (UniProt P03366). Briefly: FP filter.
Where [1] appears, read: 50 mM NaCl, stated about same Kd as 30N RNA.
Setting [2] is: nitrocellulose filter, 250 mM NaCl, printed as 20x10^-6, data not shown.

In the case of U5 21-mer ds, the Kd is 0.025 µM under setting [1] and > 20 µM under setting [2].
The corresponding values for U5 21-mer ss are 0.025 µM and > 20 µM.

For orientation: Kd means a measure of binding affinity in units of concentration. Read a low Kd as tighter binding.
